Measured values published in the Immune Epitope Database (IEDB).
Values belong to the sequence of their own block, whether it stands above or below them.

How the values were obtained:
HLA-A*02:01 [1] = test: IEDB peptide-MHC binding, cellular MHC/competitive/fluorescence; ≥ and ≤ were set here for values at or beyond the usual limits of such assays; details: source organism: Homo sapiens
HLA-B*58:01 = test: IEDB peptide-MHC binding, purified MHC/direct/fluorescence; filed as Kd, often an IC50 or EC50 that approximates it; ≥ and ≤ were set here for values at or beyond the usual limits of such assays
HLA-A*02:01 [2] = test: as above
HLA-B*15:09 = test: as above
HLA-A*01:01 = test: as above
HLA-C*03:03 = test: as above; details: source organism: Coxiella burnetii Dugway 5J108-111
HLA-B*40:01 = test: as above
HLA-B*07:02 = test: as above
HLA-A*24:02 = test: as above; details: source organism: Coxiella burnetii
HLA-B*44:02 = test: as above
HLA-B*15:01 = test: as above
HLA-C*08:02 = test: as above; details: source organism: Coxiella burnetii Dugway 5J108-111
HLA-B*27:05 = test: as above
HLA-A*03:01 = test: as above
HLA-A*32:15 = test: IEDB peptide-MHC binding, purified MHC/competitive/fluorescence; filed as Kd, often an IC50 or EC50 that approximates it; ≥ and ≤ were set here for values at or beyond the usual limits of such assays
HLA-B*83:01 = test: as above
HLA-A*32:07 = test: as above
HLA-B*45:06 = test: as above
HLA-B*15:42 = test: as above
HLA-C*14:02 = test: as above
HLA-C*06:02 [3] = test: as above
HLA-A*68:23 = test: as above; details: source organism: Coxiella burnetii Dugway 5J108-111
HLA-A*03:19 = test: as above; details: source organism: Mycobacterium tuberculosis C
HLA-B*57:01 = test: IEDB peptide-MHC binding, purified MHC/direct/fluorescence; filed as Kd, often an IC50 or EC50 that approximates it; ≥ and ≤ were set here for values at or beyond the usual limits of such assays; details: source organism: Marburg virus - Musoke, Kenya, 1980
HLA-A*31:01 = test: as above
HLA-B*48:01 = test: as above; details: source organism: Marburg virus - Musoke, Kenya, 1980
HLA-A*11:01 = test: as above
HLA-B*15:17 = test: as above; details: source organism: Marburg virus - Musoke, Kenya, 1980
HLA-B*73:01 = test: as above; details: source organism: Marburg virus - Musoke, Kenya, 1980
HLA-B*08:02 = test: as above; details: source organism: Orthomarburgvirus marburgense
HLA-A*69:01 = test: as above
HLA-A*68:02 = test: as above; details: source organism: Marburg virus - Musoke, Kenya, 1980
HLA-A*02:01 [4] = test: IEDB peptide-MHC binding, purified MHC/competitive/fluorescence; filed as Kd, often an IC50 or EC50 that approximates it; ≥ and ≤ were set here for values at or beyond the usual limits of such assays
HLA-B*18:01 = test: as above; details: source organism: Orthomarburgvirus marburgense
HLA-A*26:02 = test: as above; details: source organism: Orthomarburgvirus marburgense
HLA-B*27:04 = test: IEDB peptide-MHC binding, cellular MHC/competitive/fluorescence; ≥ and ≤ were set here for values at or beyond the usual limits of such assays; details: source organism: Human herpesvirus 4 strain B95-8
HLA-A*24:03 = test: IEDB peptide-MHC binding, purified MHC/direct/fluorescence; filed as Kd, often an IC50 or EC50 that approximates it; ≥ and ≤ were set here for values at or beyond the usual limits of such assays; details: source organism: Escherichia coli O157:H7
HLA-B*08:01 = test: as above; details: source organism: Escherichia coli O157:H7
HLA-A*26:01 = test: as above; details: source organism: Escherichia coli O157:H7
HLA-A*30:01 = test: as above; details: source organism: Escherichia coli O157:H7
HLA-C*05:01 = test: as above; details: source organism: Yersinia pestis CO92
HLA-C*15:02 = test: as above; details: source organism: Yersinia pestis CO92
HLA-C*07:02 = test: as above; details: source organism: Yersinia pestis CO92
HLA-C*06:02 [5] = test: as above; details: source organism: Yersinia pestis CO92
HLA-B*51:01 = test: IEDB peptide-MHC binding, purified MHC/competitive/fluorescence; filed as Kd, often an IC50 or EC50 that approximates it; ≥ and ≤ were set here for values at or beyond the usual limits of such assays; details: source organism: Yersinia pestis CO92
HLA-B*27:20 = test: as above; details: source organism: Yersinia pestis CO92
[6] = source organism: Coxiella burnetii
[7] = source organism: Coxiella burnetii Dugway 5J108-111
[8] = source organism: Mycobacterium tuberculosis C
[9] = source organism: Marburg virus - Musoke, Kenya, 1980
[10] = source organism: Orthomarburgvirus marburgense
[11] = source organism: Escherichia coli O157:H7
[12] = source organism: Yersinia pestis CO92

IC50 (HLA-A*02:01 [1]): 2.58 µM
Sequence: ALVVQVAEA

Sequence: MTFPVSLEY
Kd (HLA-B*58:01; [6]): 0.0249 µM | Kd (HLA-A*02:01 [2]; [6]): ≥ 20 µM | Kd (HLA-B*15:09; source organism: Coxiella burnetii Q321): ≥ 20 µM | Kd (HLA-A*01:01; [6]): 0.014 µM | Kd (HLA-C*03:03): 0.24 µM | Kd (HLA-B*40:01; [6]): ≥ 20 µM | Kd (HLA-B*07:02; [6]): ≥ 20 µM | Kd (HLA-A*24:02): ≥ 20 µM | Kd (HLA-B*44:02; [6]): ≥ 20 µM | Kd (HLA-B*15:01; [6]): 0.0434 µM | Kd (HLA-C*08:02): ≥ 20 µM | Kd (HLA-B*27:05; [6]): ≥ 20 µM | Kd (HLA-A*03:01; [6]): 0.0482 µM | Kd (HLA-A*32:15; [7]): 0.018 µM | Kd (HLA-B*83:01; [7]): 3.5 µM | Kd (HLA-A*32:07; [7]): 0.0363 µM | Kd (HLA-B*45:06; [7]): ≥ 5 µM | Kd (HLA-B*15:42; [7]): ≥ 5 µM | Kd (HLA-C*14:02; [7]): 0.123 µM | Kd (HLA-C*06:02 [3]; [7]): 0.0396 µM | Kd (HLA-A*68:23): ≤ 0.0001 µM

Sequence: MVRQMRAAL
Kd (HLA-A*32:15; [8]): 0.356 µM | Kd (HLA-B*83:01; [8]): 0.0991 µM | Kd (HLA-B*45:06; [8]): ≥ 5 µM | Kd (HLA-B*15:42; [8]): ≥ 5 µM | Kd (HLA-C*14:02; [8]): 0.0335 µM | Kd (HLA-C*06:02 [3]; [8]): 0.526 µM | Kd (HLA-A*03:19): 0.591 µM

Sequence: NRWKSWFSY
Kd (HLA-B*58:01; [9]): ≥ 20 µM | Kd (HLA-B*15:09; [10]): ≥ 20 µM | Kd (HLA-A*01:01; [9]): ≥ 20 µM | Kd (HLA-B*57:01): ≥ 20 µM | Kd (HLA-A*31:01; [9]): ≥ 20 µM | Kd (HLA-B*48:01): ≥ 20 µM | Kd (HLA-A*11:01; [9]): ≥ 20 µM | Kd (HLA-B*15:17): ≥ 20 µM | Kd (HLA-B*73:01): 0.0098 µM | Kd (HLA-B*07:02; [9]): ≥ 20 µM | Kd (HLA-B*08:02): ≥ 20 µM | Kd (HLA-A*69:01; [9]): ≥ 20 µM | Kd (HLA-B*15:01; [9]): ≥ 20 µM | Kd (HLA-B*27:05; [9]): 0.0864 µM | Kd (HLA-A*68:02): ≥ 20 µM | Kd (HLA-A*02:01 [4]; [10]): 2.54 µM | Kd (HLA-B*18:01): ≥ 20 µM | Kd (HLA-A*26:02): ≥ 20 µM

Sequence: QRSYVSGVL
IC50 (HLA-B*27:04): 5 µM

Kd (HLA-B*58:01; [11]): ≥ 20 µM | Kd (HLA-A*02:01 [2]; [11]): ≥ 20 µM | Kd (HLA-A*01:01; [11]): ≥ 20 µM | Kd (HLA-A*31:01; [11]): 0.0968 µM | Kd (HLA-A*11:01; [11]): 1.86 µM | Kd (HLA-B*40:01; [11]): ≥ 20 µM | Kd (HLA-A*24:03): ≥ 20 µM | Kd (HLA-B*07:02; [11]): ≥ 20 µM | Kd (HLA-B*08:01): ≥ 20 µM | Kd (HLA-A*69:01; [11]): ≥ 20 µM | Kd (HLA-B*44:02; [11]): ≥ 20 µM | Kd (HLA-B*15:01; [11]): ≥ 20 µM | Kd (HLA-A*26:01): ≥ 20 µM | Kd (HLA-B*27:05; [11]): ≥ 20 µM | Kd (HLA-A*03:01; [11]): 11.6 µM | Kd (HLA-A*30:01): 0.00693 µM
Sequence: VTRQIHNPR

Sequence: YQLEMYHPI
Kd (HLA-C*05:01): ≥ 20 µM | Kd (HLA-C*15:02): ≥ 20 µM | Kd (HLA-C*07:02): 3.75 µM | Kd (HLA-C*06:02 [5]): ≥ 20 µM | Kd (HLA-B*83:01; [12]): ≥ 5 µM | Kd (HLA-A*02:01 [4]; [12]): 0.0002 µM | Kd (HLA-A*32:07; [12]): 0.0013 µM | Kd (HLA-B*51:01): ≥ 20 µM | Kd (HLA-B*45:06; [12]): 3.21 µM | Kd (HLA-B*15:42; [12]): 15.2 µM | Kd (HLA-C*14:02; [12]): 0.0709 µM | Kd (HLA-B*27:20): 0.0008 µM
